Measured values published in patent US20260056186A1 (JIANGSU HENGRUI PHARMACEUTICALS, published 2026).
Like-named read-outs stand apart in the source and are kept apart here.

Tests used:
[1] = molecular target: T1, APRIL (Acro Biosystems, Cat: APL-H52D1) (UniProt O75888 115-250, limits assumed); experiment: ELISA, APRIL coated at 1 ug/mL, anti-human Fc-HRP, OD450
T1 construct: also called ARPIL
T1 sequence (looked up): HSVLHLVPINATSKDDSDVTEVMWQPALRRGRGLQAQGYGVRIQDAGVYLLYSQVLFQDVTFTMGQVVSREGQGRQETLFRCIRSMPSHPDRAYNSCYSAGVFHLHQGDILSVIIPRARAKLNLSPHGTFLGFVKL
Description: The capabilities of fusion proteins B606401, B637302, B746201, and B805201 to bind to BAFF and APRIL were assessed by ELISA as follows:
(§1) BAFF (PeproTech, Cat: 310-13) or ARPIL (Acro Biosystems, Cat: APL-H52D1) was diluted to 1 μg/mL with PBS, and a 96-well plate was coated with the dilution overnight at 4° C. The plate was washed with PBST and blocked with Blocking Buffer (PBST containing 1% BSA) at 37° C. for 1 h. The plate was tapped. The test antibodies were diluted with Blocking Buffer. Incubation was performed at 37° C. for 1.5 h. The plate was washed with PBST. An HRP-mouse anti-human Fc antibody (GenScript, Cat: A01854-200) was diluted with Blocking Buffer. Incubation was performed at 37° C. for 40 min. The plate was washed with PBST. 100 μL of TMB substrate solution (Biopanda, Cat: TMB-S-003) was added, and color development was performed at 37° C. for 3 min. 100 μL of ELISA stop solution (Solarbio, Cat: C1058) was added. OD450 was measured.

[2] = molecular target: T2, recombinant human BAFF (R&D cat: 7537-BF-025/CF) (human, UniProt Q9Y275 134-285); experiment: cell-based or functional assay
T2 sequence (Q9Y275 134-285 limits assumed): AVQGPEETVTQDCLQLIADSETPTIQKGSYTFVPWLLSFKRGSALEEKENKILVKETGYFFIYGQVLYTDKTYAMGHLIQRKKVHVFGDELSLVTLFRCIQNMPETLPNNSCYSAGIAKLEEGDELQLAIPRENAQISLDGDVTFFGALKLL

[3] = molecular target: T3, recombinant human APRIL (R&D cat: 5860-AP-010/CF) (human, UniProt O75888 105-250, limits assumed); experiment: cell-based or functional assay
T3 sequence (looked up): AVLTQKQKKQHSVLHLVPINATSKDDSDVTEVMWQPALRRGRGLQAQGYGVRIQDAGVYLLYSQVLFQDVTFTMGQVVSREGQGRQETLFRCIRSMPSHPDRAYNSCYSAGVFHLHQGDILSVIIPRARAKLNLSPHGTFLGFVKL

[4] = molecular target: T3, recombinant human APRIL (R&D cat: …); experiment: cell-based or functional assay; remark: listed apart in the source
IFNAR1 [5] = molecular target: T4, IFNAR1 (human, UniProt P17181 28-557); experiment: cell-based or functional assay
T4 sequence (looked up): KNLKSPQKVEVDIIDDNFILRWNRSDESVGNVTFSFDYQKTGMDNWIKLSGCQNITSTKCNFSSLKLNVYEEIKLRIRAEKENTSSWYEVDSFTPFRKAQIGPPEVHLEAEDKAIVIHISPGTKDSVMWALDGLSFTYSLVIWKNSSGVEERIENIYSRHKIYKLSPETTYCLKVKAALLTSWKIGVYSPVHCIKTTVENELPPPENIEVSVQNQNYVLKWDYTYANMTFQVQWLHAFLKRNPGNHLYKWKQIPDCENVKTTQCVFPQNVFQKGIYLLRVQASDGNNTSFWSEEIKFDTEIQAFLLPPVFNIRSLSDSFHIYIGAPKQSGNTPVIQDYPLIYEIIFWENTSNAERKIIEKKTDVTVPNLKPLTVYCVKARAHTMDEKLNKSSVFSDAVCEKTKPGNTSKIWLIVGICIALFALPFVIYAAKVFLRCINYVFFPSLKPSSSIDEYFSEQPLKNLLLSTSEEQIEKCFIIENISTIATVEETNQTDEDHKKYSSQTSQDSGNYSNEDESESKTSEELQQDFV

IFNAR1 [6] = molecular target: T4, IFNAR1; experiment: cell-based or functional assay; remark: listed apart in the source
[7] = molecular target: T2, recombinant human BAFF (R&D cat: …); experiment: cell-based or functional assay; remark: listed apart in the source
[8] = molecular target: T1, APRIL (Acro Biosystems, Cat: APL-H52D1); experiment: ELISA, APRIL coated at 1 ug/mL, anti-human Fc-HRP, OD450; remark: listed apart in the source
Description: as §1, with “The capabilities of B613301, B613302, and B613303, which are fusion proteins of anifrolumab and TACI-BCMA, to bind to BAFF and APRIL were assessed by ELISA as follows: [0548] BAFF (PeproTech,” for “BAFF (PeproTech,”, “96-well plate (Costar, Cat: 3590) was coated” for “96-well plate was coated”

| Binder | EC50 [1] [nM] | Emax [1] | CD27+ CD38+ plasma cell count, mean value, BAFF + APRIL-induced (both ligands together), drug at 100 nM (IgG1: 2496) [2] [cells] | CD27+ CD38+ plasma cell count, mean value, BAFF + APRIL-induced (both ligands together), drug at 1000 nM (IgG1: 2279) [2] [cells] | CD27+ CD38+ plasma cell count, mean value, BAFF + APRIL-induced (both ligands together), drug at 10 nM (IgG1: 2687) [3] [cells] | CD27+ CD38+ plasma cell count, mean value, BAFF + APRIL-induced (both ligands together), drug at 100 nM (IgG1: 2496) [3] [cells] | CD27+ CD38+ plasma cell count, mean value, BAFF + APRIL-induced (both ligands together), drug at 1000 nM (IgG1: 2279) [3] [cells] | Flow cytometry proliferating B cell proportion (%), mean value, APRIL-induced, drug at 4.12 nM (IgG1: 55.30) [4] [%] | Flow cytometry proliferating B cell proportion (%), mean value, APRIL-induced, drug at 12.35 nM (IgG1: 54.80) [4] [%] | Flow cytometry proliferating B cell proportion (%), mean value, APRIL-induced, drug at 37.04 nM (IgG1: 56.63) [4] [%] | Flow cytometry proliferating B cell proportion (%), mean value, APRIL-induced, drug at 111.11 nM (IgG1: 55.83) [4] [%] | Flow cytometry proliferating B cell proportion (%), mean value, APRIL-induced, drug at 333.33 nM (IgG1: 56.27) [4] [%] | Flow cytometry proliferating B cell proportion (%), mean value, APRIL-induced, drug at 1000.00 nM (IgG1: 53.27) [4] [%] | IC50, inhibition of IFN-alpha-induced in vitro differentiation of B cells into plasma cells (CD27+ CD38+) (IFNAR1 [5]) [nM] | IC50 (nM), inhibition of the activity of type I interferons (IFN-beta, HEK-Blue IFN-alpha/beta reporter cells) (IFNAR1 [6]) [nM] | Flow cytometry proliferating B cell proportion (%), mean value, BAFF-induced, drug at 10 nM (IgG1: 40.15) [7] [%] | Flow cytometry proliferating B cell proportion (%), mean value, BAFF-induced, drug at 100 nM (IgG1: 40.60) [7] [%] | Flow cytometry proliferating B cell proportion (%), mean value, BAFF-induced, drug at 1000 nM (IgG1: 33.97) [7] [%] | EC50 [8] [nM] | Emax [8] |
| --- | --- | --- | --- | --- | --- | --- | --- | --- | --- | --- | --- | --- | --- | --- | --- | --- | --- | --- | --- | --- |
| B637302 (other, Fusion protein of anifrolumab, TACI-19-16 and BCMA-ECD-2 (C-terminus of the light chain)) heavy: EVQLVQSGAEVKKPGESLKISCKGSGYIFTNYWIAWVRQMPGKGLESMGIIYPGDSDIRYSPSFQGQVTISADKSITTAYLQWSSLKASDTAMYYCARHDIEGFDYWGRGTLVTVSSASTKGPSVFPLAPSSKSTSGGTAALGCLVKDYFPEPVTVSWNSGALTSGVHTFPAVLQSSGLYSLSSVVTVPSSSLGTQTYICNVNHKPSNTKVDKRVEPKSCDKTHTCPPCPAPEFEGGPSVFLFPPKPKDTLMISRTPEVTCVVVDVSHEDPEVKFNWYVDGVEVHNAKTKPREEQYNSTYRVVSVLTVLHQDWLNGKEYKCKVSNKALPASIEKTISKAKGQPREPQVYTLPPSRDELTKNQVSLTCLVKGFYPSDIAVEWESNGQPENNYKTTPPVLDSDGSFFLYSKLTVDKSRWQQGNVFSCSVMHEALHNHYTQKSLSLSPGK light: EIVLTQSPGTLSLSPGERATLSCRASQSVSSSFFAWYQQKPGQAPRLLIYGASSRATGIPDRLSGSGSGTDFTLTITRLEPEDFAVYYCQQYDSSAITFGQGTRLEIKRTVAAPSVFIFPPSDEQLKSGTASVVCLLNNFYPREAKVQWKVDNALQSGNSQESVTEQDSKDSTYSLSSTLTLSKADYEKHKVYACEVTHQGLSSPVTKSFNRGECGGGGSGGGGSMLQMAGQCSQNEYFDSLLHACIPCQLRCSSNTPPLTCQRYCSTSCREEQGEFYDHLLRDCISCASICGQHPKQCAAFCE | 0.0819 | 2.9 | 482 | 137 | 563 | 482 | 137 | 50.6 | 50.7 | 53.6 | 51.5 | 48 | 33.6 | 10.8 | 1.59 | 23.8 | 22.2 | 10.9 |  |  |
| B613303 (other, Fusion protein of anifrolumab and TACI-BCMA) heavy: EVQLVQSGAEVKKPGESLKISCKGSGYIFTNYWIAWVRQMPGKGLESMGIIYPGDSDIRYSPSFQGQVTISADKSITTAYLQWSSLKASDTAMYYCARHDIEGFDYWGRGTLVTVSSASTKGPSVFPLAPSSKSTSGGTAALGCLVKDYFPEPVTVSWNSGALTSGVHTFPAVLQSSGLYSLSSVVTVPSSSLGTQTYICNVNHKPSNTKVDKRVEPKSCDKTHTCPPCPAPEFEGGPSVFLFPPKPKDTLMISRTPEVTCVVVDVSHEDPEVKFNWYVDGVEVHNAKTKPREEQYNSTYRVVSVLTVLHQDWLNGKEYKCKVSNKALPASIEKTISKAKGQPREPQVYTLPPSRDELTKNQVSLTCLVKGFYPSDIAVEWESNGQPENNYKTTPPVLDSDGSFFLYSKLTVDKSRWQQGNVFSCSVMHEALHNHYTQKSLSLSPGK light: EIVLTQSPGTLSLSPGERATLSCRASQSVSSSFFAWYQQKPGQAPRLLIYGASSRATGIPDRLSGSGSGTDFTLTITRLEPEDFAVYYCQQYDSSAITFGQGTRLEIKRTVAAPSVFIFPPSDEQLKSGTASVVCLLNNFYPREAKVQWKVDNALQSGNSQESVTEQDSKDSTYSLSSTLTLSKADYEKHKVYACEVTHQGLSSPVTKSFNRGECGGGGSGGGGSSRVDQEERFPQGLWTGVAMRSCPEEQYWDPLLGTCMSCKTICNHQSQRTCAAFCRSLSCRKEQGKFYDHLLRDCISCASICGQHPKQCAYFCENKLRSPVNLPPELMLQMAGQCSQNEYFDSLLHACIPCQLRCSSNTPPLTCQRYCNASVTNSVKGTNA |  |  |  |  |  |  |  |  |  |  |  |  |  |  |  |  |  |  | 0.151 | 2.33 |
| Anifrolumab (antibody, human IgG1, kappa, V domains shown) VH: EVQLVQSGAEVKKPGESLKISCKGSGYIFTNYWIAWVRQMPGKGLESMGIIYPGDSDIRYSPSFQGQVTISADKSITTAYLQWSSLKASDTAMYYCARHDIEGFDYWGRGTLVTVSS VL: EIVLTQSPGTLSLSPGERATLSCRASQSVSSSFFAWYQQKPGQAPRLLIYGASSRATGIPDRLSGSGSGTDFTLTITRLEPEDFAVYYCQQYDSSAITFGQGTRLEIKR |  |  |  |  |  |  |  |  |  |  |  |  |  | 12.7 | 1.53 |  |  |  |  |  |
